The target in assay [1] is endogenous RORα of mouse cerebellar neurons and cerebellum (UniProt P51448). The assay is described as follows: co-immunoprecipitation (IP: FLAG, IB: RORα), quantified output band corrected by input band. The note with it: primary cerebellar neurons, transient expression; n = 3; parent: est. 3.2; read off a plot.
Assay [2] has the same target. The assay is described as follows: co-immunoprecipitation (IP: RORα, IB: FLAG), quantified output band corrected by input band. The note with it: primary cerebellar neurons, transient expression; n = 3; parent: est. 0.42; read off a plot.

Data on 1 substance can be found in publication PMC5709507.

Sequence of UniProt P51448 (P51448 whole entry): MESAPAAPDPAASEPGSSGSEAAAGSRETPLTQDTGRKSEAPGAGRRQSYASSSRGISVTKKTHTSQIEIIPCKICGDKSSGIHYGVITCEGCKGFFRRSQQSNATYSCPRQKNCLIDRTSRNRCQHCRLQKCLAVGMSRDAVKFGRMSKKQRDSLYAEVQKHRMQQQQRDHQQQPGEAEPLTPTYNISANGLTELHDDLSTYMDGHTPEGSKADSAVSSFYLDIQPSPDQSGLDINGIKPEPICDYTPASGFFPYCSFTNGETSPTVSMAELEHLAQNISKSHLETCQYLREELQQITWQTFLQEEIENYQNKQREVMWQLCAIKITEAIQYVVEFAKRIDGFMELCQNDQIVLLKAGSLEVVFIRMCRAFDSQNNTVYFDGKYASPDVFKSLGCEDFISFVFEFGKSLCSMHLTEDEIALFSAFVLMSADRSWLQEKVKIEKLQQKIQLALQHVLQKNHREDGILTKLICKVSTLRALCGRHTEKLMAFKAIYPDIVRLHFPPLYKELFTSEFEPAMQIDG

With “Human YAP2 WT (FLAG-YAP2 WT) WQDP>AQDA (first WW domain)”, the values for the response in assay [1] and in assay [2] were 3.1 and 0.4, respectively.
